This data set is described as follows: soluble on expression in E. coli; label from the status in PepcDB or PDB records.
Regarding “MGSDKIHHHHHHMEETAETPAAVIPPPPPEDEPAELPATLGFVSHQPVMDRQQRVVAYDFFVRQGKRNIEAGKQQEFDRLLLATLHNMDIFRLLAYRRAFVHIAMTSLDDPQLRGMPAGSVIFVLEPLPGMVVAEHMLRQLDELQKLGLRFALEPAAYDQNMLSPALQADLFSRVDFMVLDFAGPSTRVLAPILDQLPKRYPGARWLARNVGTAEDMDVCLRAPGHNRFALFHGPFVTTAHALEGGKVDTNQTRVLQIMRLLRTNADPKEVEAQFKLDSVLLFKLLRFINSPIHGLSRKVQTIEETLLLLGRETLFKWLSMLLFTSRKEDGTALSLLEKSLIRARFMEKLGGYRGNKLEAEHLFLTGMFSLLDVLLNQPFPDVLDPLELPLTVREAVVERKGIFAPHLALAMACEQGDNVQIEALAKVLDFDLDLANQYYLDSVVWAQVVLRDSEVHNNVEAV”, the “soluble on expression in E. coli” value is recorded as “not soluble”.
For the sequence “MANVYDLANELERAVRALPEYQAVLTAKSAIESDADAQVLWQDFLATQSKVQEMMQSGQMPSQEEQDEMSKLGEKIESNDLLKVYFDQQQRLSVYMSDIEKIVFAPMQDLM”, the “soluble on expression in E. coli” value is given as “not soluble”.
As for “MGSDKIHHHHHHMLHNTNQPQISRQMNELEAQCGGRLFNRTGRGVELTDLGQHLLPKIRSWLNVTDQLNNEILHSTDTPIGTVRIASLPSTAHPLLSTLYKVLQEKYPLIKLSVREGQGVHLEKWLEDGSVDLAILYRFNPTPKQGDIYLTQADTYLVGCEGDALTQASEVDFKAINQLPLVTFCRPSNWRNFLDHMAYENGVELNIVFEADSISLQTHLVSESRMYTMLGPQALKKASQYTSIQAAKIINPALKRYISLSISKHGYLTPACKAVMEEIRNLADLL”, the entry is “not soluble”; as for “MRASRKRLHTTNLRWNMSQKHWSKVQLLHEVVKNPNIIIKGKHSYYSDCWDAGFEASVVRYLHGDEISQRWDPLWEIDQLVIGDYVCIGAEVVILMGGNHTHRADWFCLYPFMDVIEQAYVGKGNTEIGDGAWLGMRAMIMPGVKIGEGAIVAANSVVTKDVAPYSIVAGSPAQLVKYRFDAKVIDELLALKVYDWPPEKFTALKSYLCALDLAALKQAVIQYDAEPHNPLS”, “not soluble”.
With “MELSDSKVIAADRATVWAALLSPEVLKECVPGCQEMSGSPDEGFEATVVQKVGPVKATFKGGVTLSEMVAPESLTLSGEGKGGAAGFAKGAARVRLEEGADGTTILSYEVEAKVGGKLAQLGSRIIDGFARKMADQFFTRFQEVLEGPGEAESPEAEASGDAKKKGWFKRVISGLEHHHHHH”, the “soluble on expression in E. coli” value is on record as “soluble”.
Regarding “MATITDIAKVANVSISTVSRVLNYDPNLSVTEETKRKIFEAAETLNYTKYKTKNKNKQQEQLTPNLSVQTAPQEPSIAVVQWRSDDEELTDIYYMSIRLGAEKRAEELGYNILKVSQLEQHNLQGIDGILAIGKFTQKTLQELQQLHPNLCVIGSNFPLEEFDSVNTDFYQATEIALTHLLELGHEKIAFIGAEESENMYGFRRYKTPTTNAYLDIMQHYHLFNEDYFILKENGMLDVKTGEQLTEEALEKWGNDLPTAILAYNDAFAIGVIHTLAAHGIKVPEEISVMGINDISISQYVSPPLSSVHAFTEEMGETGINLLHKRIQMPSIPRRVLLNTELVVRQSTTSPRQK”, the “soluble on expression in E. coli” value is given as “soluble”.
Regarding “MGSDKIHHHHHHMSSPLLTMRGIRKSYAGVHALVDGNLDLERGQIHALCGGNGAGKSTILGILMGFTRPDCGEIRIEGKPVSFANPTQALQAGIAIVQQELSGVPHLTVAENIYLGAEPRRRGFVDFPQLNRQAEELLASLGFDIDPRVPLASLSIASQQLIEIAKALSRRDADILIFDEPTSAIGEKDTLRLFEVLRDLAAAGKGIIYVTHRLAEVFTIADSYTVFKDGARIETGRVADITREKLIESMIGGAIEGEYVKENVPSDRPLLDVRGLSRAPWFDRVSFTLHAGEILGIYGLVGSGRSQLLDTIYGLYPADAGTVWVEGREIRPGRVRAALGAGISYVTEDRKHSGLVLCASVGDNLSLSQLPHIQRFGFIRTALERAGIDDSIAKMRIKTPGPEQIVRNLSGGNQQKVVFGRCTSIGPKVLLLDEPTRGVDVGAKKEIYRFVSDFTKAGGAVLMVSSELDEITGMSDRIIVIKKGAHVAEFPREETTQKALMMAAV”, the “soluble on expression in E. coli” value was “not soluble”.

These data come from the DeepSol protein solubility set.
